B1: 4T0784 (antibody, V domains shown)
VH: QVQLVESGGGVVQPGRSLRLSCAASGFTFSTYGVHWVRQAPGKGLEWVGVIWYDGSKKYYADSVKGRFTISRDNSKNTLYLQMNSLRAEDAAVYRCVRGGDLLLLPDSIDYYGMDVWGQGTLVTVSS
VL: KDHDPQAPVSLSASVGDRVTITCRASQGIRNDLGWYQQKPGKAPKRLIYAASSLQSGVPSRFSGSGSGTEFTLTISSLQPEDFATYYCLQHNTYPFSFGPGTKVDIK
B2: 3T0553 (antibody, V domains shown)
VH: QVQLVESGGGVVQPGRSLRLSCAASGFTFTTCAMHWVRQAPGKGLEWVSVMWYDGSREYYADSVKGRFTISRDNSKNTLYLEMQSLRAEDTAVYYCARGGDLLVEVDSTDYYGLDVWGQGTTVTVSS
VL: DIQMTQSPSAMSASVGDRVTITCRASQGISHSLAWFQQKPGKVPKRLIYSASTLQSGVPSRFSGSGSGTEFTLTISSLQPEDFATYYCLQHNRYPWTFGQGTKVEIK
B3: 3T0331 (antibody, V domains shown)
VH: EVQLLESGGGLVQPGGSLRLSCEASGFPLRDYAMSWVRQAPGRGLQWVSTIGGNDNAANYADSVKGRFTVSRDNSKSTIYLQMNSLRAEDTALYFCAKSVRLSRPSPFDLWGQGSLVTVSS
VL: EIVLTQSPATLSLSPGERATLSCRASQSVSTYLAWYQHQPGQAPRLLIYEASNRATGIPARFSGSGSGTEFTLTISSLEPEDVAVYYCQQRASWPLTFGGGTKVEIK
B4: 1T0455 (antibody, V domains shown)
VH: EVQLVESGGGLVKPGESLRLSCAVSGLTFSNAWMNWVRQAPGKGLEWVGRIKSKSDGGAADYAAPVNARFTISRDDSKKTLYLQMNSLKTEDTGFYYCTTLYHSGQGTLVTVSS
VL: QSVLTQPPSVSGAPGQRVTISCTGSSSNIGAGYDVHWYQQLPGTAPKFVIYGNNNRPSGVPDRFSGSKSGTSASLAITGLQVEDEGDYYCQSYDSRLSDHVVFGGGTKLTVL
B5: 1T0227 (antibody, V domains shown)
VH: EVQLVESGGGLVKPGGSLRLSCAASGFTFRNAWMNWVRQAPGKGLEWVGRIKSRADGGPTDYAAPVKGRFTISRDDSKNTLYLQMNSLKSEDTAVYYCTTHVPDYNSAYYWVYWGQGTLVTVSS
VL: QSVLTQPPSVSGAPGQRVTISCTGSSSNIGAGYDVYWYQQLPGTAPKLIIYGNNNRPSGVPDRFSASKSGPSASLAITGLQAEDEADYYCQSYDIRLSDNYVFGTGTKVTVL
B6: 4T0243 (antibody, V domains shown)
VH: QVQLQESGPGLVKPSETLSLTCTVSGGSLSTYYWNWIRQPPGKGLEWIGYIYYSSLPKYSPTLKSRITISVDTSKNQFSLKLSSVTAADTAVYYCARAPRGYSSGKYNYYGLDVWSQGTTVTVSS
VL: SYELTQPPSVSVSPGHTATITCSGDALSKQFAYWYQQKPGQAPVLVISKDTERPSGIPGRFSGSSSGPTATLTISGVQAEDEADYYCQSADSSGGYYVFGSGTRVTVL
B7: 3T0478 (antibody, V domains shown)
VH: VQLLQESGPGLVKPSETLSLTCTVSGGSISSYYWNWIRQSPGKGLEWMGYIYYTGSTNYNPSLKSRVTISVDLSKNQFSLKLRSVTAADTAVYYCARDKRYYDSSGYSHFDYWGQGILVTVSS
VL: QSVLTQPPSASGTPGQRVTIFCSGSSFNIGSNYVYWYQQLPGTAPKLLIYRNNERPSGVPDRFSGSKSGTSASLDISGLRSEDEADYSCAAWDGSLSGPVFGGGTKLTVL
B8: 3T0611 (antibody, V domains shown)
VH: EVQLVESGGNLVQPGGSLRLSCAASGFTFRSYSMNWVRQAPGKGLEWVSYISSSASIIHYAESVQGRFTISRDNAKNSLFLQMNSLRAEDTAVYYCAGILDDYRDYGYDYWGQGTLVTVSS
VL: SYELTQPPSVSVSPGQTARITCSGDALPKQYAYWYQQRPGQAPVLVIYKDIERPSGIPERYSGSSSGAIVTLTISGAQAEDEADYYCQSSDNNGSYRVMFGGGTKLTVL
B9: 5T0465 (antibody, V domains shown)
VH: QVQLVQSGAEVREPGASVRISCKASGYTFTSASIHWVRQAPGQGLEWMGIIDPVVGKTRSERKFNGRLIMTRDTPTSTVYMELNSLRSDDTAMYYCARSGYYPRGMDVWGQGTTVTVSS
VL: SYELTQPPSVSVSPGQTASITCSGDKLGDEYVSWYQQKPGQSPVLVISRDTRRSSGIPERFSGSNSGNTATLTISGTQAMDEADYYCQAWDSSTAVVFGGGTKLTVL
B10: 3T0253 (antibody)
heavy: EVQLVESGGGLVKPGRSLRISCAASGITFNKAWMNWVRLAPGKGLEWVGRIKSNGDGGKRDYAAPVTGRFTISRDDSKNTLYLQMNSLKTEDTAVYFRTTRHHRGMDVWGQGTTVTVSS
light: QSVLTQPPSVSGAPGQRVTISCTGSSSNIGAGYDVHWYQHLPGAAPKLLIYGDGSRPSGVPDRFSASKSGTSASLAITGLQAEDEADYYCQSYDSSLSDAVVFGGGTKLTVL
B11: 4T0764 (antibody, V domains shown)
VH: QVQLQESGPGLVEPSETLSLTCTVSGASISSLFWSWIRQPPGKGLEWIGYIHSDGSTNYNPFLKSRVTISIDTSQNQFSLRLTSVTAADTAVYFCARGLLGSQDSWGQGTLVTVSS
VL: QSALTQPASVSGSPGQSITISCTGTSSDVGGYNYVSWYQQYPGKAPKLVIYEVTNRPSGVSNRFSGSKSGNTASLTISGLRAEDEADYHCSSYRTRNTHVIFGGGTKLTVL
B12: 3T0245 (antibody, V domains shown)
VH: EVQLVESGGDLVKPGGSLRLSCEASGFTFTNAWMNWVRQSPGKGLEWIGRVKSKSDGGAADYAAPVKGRFTISRDDSKNSVFLQMRSLKPEDTGVYYCATRVHYNGMDVWGRGTTVTVSS
VL: QSVLTQPPSVSGAPGQRVTISCAGSGSNIGAGYDVHWYQQLPGTAPKLLIYANHNRPSGVPDRFSGSKSGSSASLAITGLQAEDEADYYCQSYDSSLRDACVFGGGTKLTV
B13: 3T0202 (antibody, V domains shown)
VH: EVQLVESGGGLVQPGGSLRLSCAASGFKFRSYDMHWVRQRSGEGLEWVAAIGTAADTYYLGSVRGRFTISRENAKNSLYLQMDSLGAGDTAVYYCARAAFGAVFFDYWGQGTLVTVSS
VL: EIVLTQSPGTLSLSSGERATLSCRASQSISSSYLVWYQQKLGQAPRLLIYGASRRATGIPDRFSGSGSGTDFTLTISRLEPEDFAVYYCQQYGNSPITFGQGTRLEIK
B14: 3T0650 (antibody, V domains shown)
VH: EVQLVQSGGGLVKPGGSLRLSCAASGFTFSNAWMNWVRQAPGKGLEWIGRVKSQTDRGTKDYAAPVKGRFSISRDDSKKMLYLQMNSLKIEDTGVYYCVATPHSWSVAWGQGTLVTVSS
VL: QSVLTQPPSVSGAPGQRVTISCTGSSSNIGAGYDVQWYQQFPGTAPKLLIYGNINRPSGVPDRFSGSKSGSSASLAITRLQAEDEADYYCQSYDSSLRDQWVFGGGTKLTVL
B15: 3T0673 (antibody, V domains shown)
VH: EVQLVESGGGRVKPGGSLRVSCAVSGITFTNAWMTWVRQAPGKGLEWLGRIKSRSDGGQSDLIAPVKGRFTISRDDSKNILYLQMNNLKTEDTGLYFCTTYYYDNGGSYSNPWGLGTLVTVSS
VL: QSVLTQPPSVSGAPGQRVTISCTGSYSNIGAGYDVLWYQQLPGTAPKLLIYGNNKRPSGVPDRFSGSKSGTSASLAITGLQAEDEADYYCQSYDSRLRDFGIFGGGTKLTVL
B16: 4T0452 (antibody, V domains shown)
VH: EVQLVESGGGLVKPGGSLRISCAASGFSFSNAWMNWVRQAPGKGLEWVGRIKSVSDGGPIHYAAPVKGRFTISRDDSKKMLYLQMNSLKVDDTAVYYCATEPRGYDWGWGQGTLVTVSS
VL: QSVLTQPPSVSGAPGQRVTISCTGSYSNIGAGYDVYWYQQFPGTAPKLLIYGNTNRPSGVPDRFSGSRSGTSASLAITGLQAEDEAHYYCQSYDSRLRDNWVLGGGTKLTVL
B17: 3T0338 (antibody, V domains shown)
VH: EVQLVESGGALVKPGGSLRLSCAASGFSFKTAWMNWVRQAPGKGLEWVGRIKSRADGGTSDYSASVKGRFTFSRDDSKNTLYLQMTSLKTEDTGMYYCTTLNLGGGFPGEWRSVWGQGTTVTVSS
VL: QSVLTQPPSVSGAPGQRVTISCTGSYSNIGSGYDVLWYQQLPGAAPKLLIYGNNNRPSGVPDRFSGSKSGTSASLAITELQAEDEGDYYCQSYDSRLRDSWVFGGGTRLTVL
B18: 5T0278 (antibody, V domains shown)
VH: EVQLVESGGGLVKPGGSLRVSCAASGFPFTDAWMSWVRQAPGKGLEWVGRIKSNSDGGIPDYAAPVKGRFTISRDDSKRTLYLQMNSLKTEDTGYYYCYTLRFFGPGNSWGQGTLVTVSS
VL: QSVLTQPPSVSGAPGQRITISCTGSYSNIGAGYDVSWHQQLPGKAPKLLIYGNNNRPSGVPDRFSGSKSGTSASLTITGLQAEDEADYYCQSYDARLRDQVVFGGGTKLTVL
B19: 5T0209 (antibody, V domains shown)
VH: EVQLVDSGGGLVKPGGSLRLSCAASGFTFSKAWMSWVRQAPGKGLEWVGRIKSRTDGGTTDYAAPVRGRFTISRDDSKNTLFLQMNSLKPEDTAIYYCATDYYESRGYWGQGTLVTVSS
VL: QSVLTQPPSVSGAPGQRVTISCTGSSSNIGAGYDVNWYQQIPGTAPKLLIYGNNKRPSGVPDRFSGSKSGTSVSLAITGLQAEDEADYYCQSYDSRLSDHWVFGGGTKLTVL
B20: 5T0451 (antibody, V domains shown)
VH: EVQLVESGGGLVKPGGSLRLSCAASGFTFTNAWMNWVRQAPGKGLEWIGRIKSKGDGGTADHAAPVRGRFIISRDDSKQMLYLQMTGLKSDDTAVYYCTRGPYDNFSGWRDYWGQGTLVTVSS
VL: QSVLTQPPSVSGAPGQRVTISCTGSGSNIGAGYDVQWYQQHPGTAPKVLIYGNNKRPSGVPDRFSGSKSGTSASLAITGLQAEDEAHYYCQSYDARLRDSWVFGGGTQLTVL
B21: 4T0444 (antibody, V domains shown)
VH: EVQLVVSGGGLVQPGGSLRLSCAASGFTLKSYDIHWVRQRPGEGLEWVAAIGAAGDTYFSGSVKGRFTISRENARNSLYLQMNSLGAGDTAIYYCARARFGDLALDYWGQGILVTVSS
VL: EIVLTQSPGTLSLSPGERATLSCRSSQSVSSNSLAWYQQKPGQAPRLLIYGASSRAAGIPDRFSGSGSGTDFTLTISRLQPEDFAVFFCHQYSSSPLTFGGGTKVEIK

These binders were tested against EBOV Mayinga (GenBank: NC_002549) (Zaire Ebolavirus (EBOV Mayinga)) (UniProt Q05320) (assay: cell-based or functional assay).
Sequence of UniProt Q05320 (Q05320 33-676 limits assumed): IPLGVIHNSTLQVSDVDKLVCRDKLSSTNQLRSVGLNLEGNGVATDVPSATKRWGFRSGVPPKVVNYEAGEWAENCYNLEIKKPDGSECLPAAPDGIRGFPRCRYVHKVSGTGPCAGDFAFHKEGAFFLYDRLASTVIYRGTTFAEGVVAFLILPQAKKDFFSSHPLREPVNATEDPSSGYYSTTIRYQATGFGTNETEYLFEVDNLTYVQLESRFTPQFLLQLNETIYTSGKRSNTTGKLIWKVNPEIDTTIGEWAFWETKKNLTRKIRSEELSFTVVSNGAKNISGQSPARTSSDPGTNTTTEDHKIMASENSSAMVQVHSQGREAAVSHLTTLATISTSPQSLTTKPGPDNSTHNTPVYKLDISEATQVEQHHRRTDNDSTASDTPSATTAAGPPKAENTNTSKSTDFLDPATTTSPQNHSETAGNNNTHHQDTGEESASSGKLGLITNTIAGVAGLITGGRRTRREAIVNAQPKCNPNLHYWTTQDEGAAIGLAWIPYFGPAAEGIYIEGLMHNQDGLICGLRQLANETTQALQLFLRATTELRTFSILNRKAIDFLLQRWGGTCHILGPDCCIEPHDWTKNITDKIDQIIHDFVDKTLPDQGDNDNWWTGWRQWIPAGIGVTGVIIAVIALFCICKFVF

Binder | neutralization concentration (GMC, CPE reduction on Vero C1008 cells)
B1 | 1.86 µg/mL
B2 | 1.31 µg/mL
B3 | 0.011 µg/mL
B4 | 1.77 µg/mL
B5 | 1.86 µg/mL
B6 | 0.011 µg/mL
B7 | 0.78 µg/mL
B8 | 0.78 µg/mL
B9 | 0.66 µg/mL
B10 | 1.31 µg/mL
B11 | 0.88 µg/mL
B12 | 0.63 µg/mL
B13 | 0.53 µg/mL
B14 | 0.74 µg/mL
B15 | 0.53 µg/mL
B16 | 0.88 µg/mL
B17 | 1.06 µg/mL
B18 | 0.63 µg/mL
B19 | 1.77 µg/mL
B20 | 1.05 µg/mL
B21 | 1.2 µg/mL

Source: patent US20240075139A1
